Experimental data as given in patent US20140086916A1 (Merck Sharp & Dohme, published 2014).
Read-outs that look alike come from different tables or passages of the source.

T1: FcγRIIb (Pichia pastoris produced) (UniProt P31994 43-217, limits assumed)
T1 construct: also called FcgRIIB; CD32B
T1 sequence (looked up): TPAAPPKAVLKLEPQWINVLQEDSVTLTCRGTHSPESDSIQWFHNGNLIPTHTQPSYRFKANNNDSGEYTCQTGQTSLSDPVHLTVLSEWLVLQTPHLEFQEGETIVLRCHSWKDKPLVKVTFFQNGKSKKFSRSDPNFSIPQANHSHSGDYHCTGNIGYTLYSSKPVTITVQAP

T2: FcγRIIa (Pichia pastoris produced) (UniProt P12318 34-217, limits assumed)
T2 construct: also called CD32A
T2 sequence (looked up): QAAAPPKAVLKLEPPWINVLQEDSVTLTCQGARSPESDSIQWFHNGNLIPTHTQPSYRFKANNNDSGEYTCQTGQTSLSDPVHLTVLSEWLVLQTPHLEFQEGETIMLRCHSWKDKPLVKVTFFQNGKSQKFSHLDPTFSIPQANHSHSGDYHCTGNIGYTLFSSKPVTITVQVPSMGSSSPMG


Assays:
[1] = target: T3, FcγRIIIa-F158 (Pichia pastoris produced) (UniProt P08637 17-208, limits assumed); assay: ELISA-type plate assay, FcγR coated, antibody dimerized with AP-conjugated goat anti-human IgG F(ab')2, RFU readout
T3 construct: also called FcγRIIIA LF; FcgRIIIA LF
T3 sequence (P08637 17-208 limits assumed): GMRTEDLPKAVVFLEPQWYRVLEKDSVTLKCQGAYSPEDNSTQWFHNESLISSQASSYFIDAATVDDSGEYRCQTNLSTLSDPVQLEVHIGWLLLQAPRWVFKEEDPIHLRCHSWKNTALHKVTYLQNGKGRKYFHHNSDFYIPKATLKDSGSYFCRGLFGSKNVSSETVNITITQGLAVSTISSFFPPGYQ
Protocol: (§1) Fcγ receptor binding assays were carried out as described (Shields, et al. (2001) J. Biol. Chem. 276:6591-6604) with minor modifications. High protein binding 96-well plates (Corning Costar) were coated with 100 μL per well of Fcγ receptor solutions in PBS at the following concentrations: 1 μg/mL for both FcγRI (R&D Systems) and FcγRIIa (Pichia pastoris produced), 2 μg/mL for FcγRIIb (P. pastoris produced), 0.8 μg/mL for FcγRIIIa-F158, and 0.4 μg/mL for FcγRIIIa-V158 (both P. pastoris produced). All Pichia pastoris produced receptors were expressed and purified as described (Li, et al. (2006) Nature Biotechnology 24:210-215). Monomeric antibody samples added to the FcγRI plate were serially diluted in assay diluent (1×PBS, 1% BSA, and 0.05% Tween20) and 100 μL, per well was added to the plate. Antibody samples prepared for the remaining receptors require a one hour dimerization step with half molar ratio of goat anti-human IgG F(ab′)2 F(ab′)2 that is conjugated with alkaline phosphatase for detection. These dimerized F(ab′)2/antibody complexes were also serially diluted and 100 μL per well were added to the remaining receptor plates and all plates were incubated for one hour at room temperature. FcγRI bound sample antibody was detected using the same goat anti-human IgG F(ab′)2 alkaline phosphatase conjugated F(ab′)2. Sample antibody binding was quantified by measuring excitation at 340 nm and emission at 465 nm after 18 hour incubation with SuperPhos, 4-MUP Fluorescence AP Substrate Detection System (Virolabs).

[2] = target: T1, FcγRIIb (Pichia pastoris produced); assay: as above
Protocol: as §1

[3] = target: T3, FcγRIIIa-F158 (Pichia pastoris produced); assay: as above; remark: listed apart in the source
[4] = target: T1, FcγRIIb (Pichia pastoris produced); assay: as above; remark: listed apart in the source
[5] = target: T4, FcγRI (R&D Systems) (UniProt P12314 16-288); assay: ELISA-type plate assay, FcγRI coated, monomeric antibody, detected with AP-conjugated goat anti-human IgG F(ab')2, RFU readout
T4 construct: Bought reagent, coated on the plate at 1 µg/mL; also called Fc gamma receptor I; CD64
T4 sequence (P12314 16-288 limits assumed): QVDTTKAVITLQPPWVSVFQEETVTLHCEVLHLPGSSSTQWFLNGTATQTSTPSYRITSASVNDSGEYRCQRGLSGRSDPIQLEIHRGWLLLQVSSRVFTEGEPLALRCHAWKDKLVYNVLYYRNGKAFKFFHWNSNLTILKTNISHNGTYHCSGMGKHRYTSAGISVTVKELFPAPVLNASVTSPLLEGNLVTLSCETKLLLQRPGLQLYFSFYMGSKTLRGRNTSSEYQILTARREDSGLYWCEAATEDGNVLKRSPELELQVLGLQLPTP
Protocol: as §1, with “These dimerized F(ab′)2/antibody complexes were also serially diluted and 100 μL per well were added to the remaining receptor plates and all plates were incubated for one hour at room temperature.” left out

[6] = target: T3, FcγRIIIa-F158 (Pichia pastoris produced); assay: ELISA-type plate assay, FcγR coated, antibody dimerized with AP-conjugated goat anti-human IgG F(ab')2, RFU readout; remark: listed apart in the source
Protocol: as §1

[7] = target: T2, FcγRIIa (Pichia pastoris produced); assay: as above
Protocol: as §1

[8] = target: T5, FcγRIIIa-V158 (Pichia pastoris produced) (UniProt P08637 17-208, limits assumed); assay: ELISA on plate-coated receptor; antibody dimerized with anti-human IgG F(ab')2-AP; ELISA IC50, YGLY23258 (dimer), Table 4 experiment
T5 construct: also called FcγRIIIA LV; FcgRIIIA LV
T5 sequence (P08637 17-208 F176V limits assumed): as the sequence (P08637 17-208 limits assumed) above, with F160V counted along it
Protocol: as §1, with “These dimerized F(ab′)2/antibody complexes were also serially diluted and 100 μL per well were added to the remaining receptor plates and all plates were incubated for one hour at room temperature.” left out

[9] = target: T3, FcγRIIIa-F158 (Pichia pastoris produced); assay: as above
Protocol: as §1, with “These dimerized F(ab′)2/antibody complexes were also serially diluted and 100 μL per well were added to the remaining receptor plates and all plates were incubated for one hour at room temperature.” left out

[10] = target: T5, FcγRIIIa-V158 (Pichia pastoris produced); assay: ELISA on plate-coated receptor; antibody dimerized with anti-human IgG F(ab')2-AP; ELISA IC50, YGLY23258 (dimer), Table 3 experiment
Protocol: as §1, with “These dimerized F(ab′)2/antibody complexes were also serially diluted and 100 μL per well were added to the remaining receptor plates and all plates were incubated for one hour at room temperature.” left out

[11] = target: T3, FcγRIIIa-F158 (Pichia pastoris produced); assay: as above
Protocol: as §1, with “These dimerized F(ab′)2/antibody complexes were also serially diluted and 100 μL per well were added to the remaining receptor plates and all plates were incubated for one hour at room temperature.” left out

[12] = target: T1, FcγRIIb (Pichia pastoris produced); assay: FcγR affinity assay 'as described in Example 7', n = 3; printed as Affinity (nM) ± STDEV; Table 12 affinity (nM) assay, n = 3; not the dimer ELISA of Tables 3-7
[13] = target: T5, FcγRIIIa-V158 (Pichia pastoris produced); assay: ELISA on plate-coated receptor; antibody dimerized with anti-human IgG F(ab')2-AP; ELISA IC50, YGLY23258 (dimer), Table 6 experiment
Protocol: as §1, with “These dimerized F(ab′)2/antibody complexes were also serially diluted and 100 μL per well were added to the remaining receptor plates and all plates were incubated for one hour at room temperature.” left out

[14] = target: T3, FcγRIIIa-F158 (Pichia pastoris produced); assay: as above
Protocol: as §1, with “These dimerized F(ab′)2/antibody complexes were also serially diluted and 100 μL per well were added to the remaining receptor plates and all plates were incubated for one hour at room temperature.” left out

EC50 (read off the curve) [1] [mg/L] | EC50 (read off the curve) [2] [mg/L] | EC50 (read off the curve) [3] [mg/L] | EC50 (read off the curve) [4] [mg/L] | EC50 (read off the curve) [5] [mg/L] | EC50 (read off the curve) [6] [mg/L] | EC50 (read off the curve) [7] [mg/L] | IC50 [8] [mg/L] | IC50 [9] [mg/L] | IC50 [10] [mg/L] | IC50 [11] [mg/L] | Kd [12] [µM] | IC50 [13] [mg/L] | IC50 [14] [mg/L] | Binder
~0.02 | ~0.4 | ~0.02 | ~0.2 | ~0.08 | ~0.02 | ~0.06 |  |  |  |  |  |  |  | 1F11 wildtype (parent) humanized anti-PCSK9 monoclonal IgG1 antibody (antibody, Produced in glycoengineered Pichia pastoris GFI5.0 (strain YGLY21351); also called 1F11 IgG1 GS5.0; YGLY21351) heavy: not shown light: DIQMTQSPSSLSASVGDRVTITCKASQNVGTNVVWYQQKPGKAPKALIHSASYRYSGVPSRFSGSGSGTDFTLTISSLQPEDFATYYCQQYKTYPYTFGQGTKVEIKRTVAAPSVFIFPPSDEQLKSGTASVVCLLNNFYPREAKVQWKVDNALQSGNSQESVTEQDSKDSTYSLSSTLTLSKADYEKHKVYACEVTHQGLSSPVTKSFNRGEC
 |  |  |  |  |  |  | 0.12 | 0.69 | 0.09 | 0.6 | 1.69 | 0.16 | 1.17 | 1F11 IgG1 F243A/V264A double mutein anti-PCSK9 antibody (antibody, sialylated N-glycans; also called 1F11 DM; YGLY23258) heavy: not shown light: DIQMTQSPSSLSASVGDRVTITCKASQNVGTNVVWYQQKPGKAPKALIHSASYRYSGVPSRFSGSGSGTDFTLTISSLQPEDFATYYCQQYKTYPYTFGQGTKVEIKRTVAAPSVFIFPPSDEQLKSGTASVVCLLNNFYPREAKVQWKVDNALQSGNSQESVTEQDSKDSTYSLSSTLTLSKADYEKHKVYACEVTHQGLSSPVTKSFNRGEC
